Experiment [1] addresses rhFrizzled-4/FC Chimera (human) (UniProt Q9ULV1). The experiment can be described thus: ELISA; rhFrizzled-4/Fc coated on a 96-well plate overnight; Norrin preparations as extracted from bacteria, BEFORE refolding, serially diluted (0.8–500 ng/mL) in 1% BSA or casein in PBS, 2 h; detected with biotinylated Norrin antibody and streptavidin–HRP; result as percent of a comparison control (R&D Systems Norrin). For orientation: An ELISA detects its analyte on a solid surface through an enzyme-linked reagent.

Experiment [2] shares this target. The experiment can be described thus: ELISA; rhFrizzled-4/Fc coated on a 96-well plate overnight; Norrin preparations AFTER denaturation and refolding with disulfide reshuffling (GSH/GSSG, 1 M arginine), serially diluted (0.8–500 ng/mL) in 1% BSA or casein in PBS, 2 h; detected with biotinylated Norrin antibody and streptavidin–HRP; result as percent of a comparison control (R&D Systems Norrin).

As for “Norrin^K86P released from MBP-linker-Norrin by HRV3C protease (from UniProt Q00604 25-133) (natural protein)”, the percent of expected binding activity relative to comparison control (R&D Systems Norrin) in experiment [1] is 14%; in experiment [2] it was 101%.
The like results for “MBP-linker-Norrin^K86P (intact, uncut fusion protein from plasmid construct Nor-w-Linker) (from UniProt Q00604 25-133)” were, in that order, 7% and 94%.

Values taken from paper PMC12692543.
